Data as given in patent US20210253718A1, “FRIZZLED5 PROTEIN-BINDING AGENTS” (Modmab Therapeutics Corporation, priority 2016, published 2021).
Where a chain is given by its changes, count along the chain named.

T1: FZD10 CRD (Homo sapiens, UniProt Q9ULW2)
T1 construct: 30-156; GPI anchor signal (C); expressed in transfected cells; host or cells: CHO cells, lentiviral pLenti-puro
T1 sequence (Q9ULW2 30-156): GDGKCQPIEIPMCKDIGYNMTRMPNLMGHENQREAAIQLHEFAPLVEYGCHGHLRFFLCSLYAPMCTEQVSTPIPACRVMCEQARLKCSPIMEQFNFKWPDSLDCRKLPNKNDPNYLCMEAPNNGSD

T2: FZD4 CRD (Homo sapiens, UniProt Q9ULV1)
T2 construct: E42-V167; GPI anchor signal (C); expressed in transfected cells; host or cells: CHO cells, lentiviral pLenti-puro
T2 sequence (Q9ULV1 42-167): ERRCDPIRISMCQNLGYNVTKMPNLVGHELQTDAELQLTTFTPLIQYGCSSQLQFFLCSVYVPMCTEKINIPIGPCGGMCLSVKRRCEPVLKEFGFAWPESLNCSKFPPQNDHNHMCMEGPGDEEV

B1: Fab-2903: anti-FZD5 Fab with antibody variable region Fv-2903; CDR SEQ ID NOs: 35, 36, 42, 81, 118, 155 (antibody, V domains shown)
VH: EVQLVESGGGLVQPGGSLRLSCAASGFNLSYYYIHWVRQAPGKGLEWVASIYPYSSYTSYADSVKGRFTISADTSKNTAYLQMNSLRAEDTAVYYCARGAIDYWGQGTLVTVSS
VL: DIQMTQSPSSLSASVGDRVTITCRASQSVSSAVAWYQQKPGKAPKLLIYSASSLYSGVPSRFSGSRSGTDFTLTISSLQPEDFATYYCQQWGGGSSLFTFGQGTKVEIK
B2: Fab-2932: anti-FZD5 Fab with antibody variable region Fv-2932; CDR SEQ ID NOs: 35, 36, 71, 108, 147, 153 (antibody, V domains shown)
VH: B1 VH with L29I, Y32S, I34M, P53S, Y54S, S55Y, Y57S, I101L
VL: B1 VL with G92Y, G94S, S95F, S96A, F98I
B3: Fab-2901: anti-FZD5 Fab with antibody variable region Fv-2901; CDR SEQ ID NOs: 35, 36, 40, 79, 116, 154 (antibody, V domains shown)
VH: EVQLVESGGGLVQPGGSLRLSCAASGFNISYSYMHWVRQAPGKGLEWVASIYSYSSYTYYADSVKGRFTISADTSKNTAYLQMNSLRAEDTAVYYCARSWYYWSPSSGMDYWGQGTLVTVSS
VL: DIQMTQSPSSLSASVGDRVTITCRASQSVSSAVAWYQQKPGKAPKLLIYSASSLYSGVPSRFSGSRSGTDFTLTISSLQPEDFATYYCQQGGFLITFGQGTKVEIK

Molecular target: T3, FZD2 CRD (Homo sapiens, UniProt Q14332)
T3 construct: D35-P161; GPI anchor signal (C); expressed in transfected cells; host or cells: CHO cells, lentiviral pLenti-puro
Experiment: Flow cytometry of anti-FZD5 Fab binding to CHO cells overexpressing Frizzled CRD
Details: not given
Protocol: Plasmids: pLCKO lentiviral vector used for knockout (TKO) library construction and expression of individual gRNAs was constructed as described previously (Hart et al., 2015). Briefly, single guide RNA (sgRNA) scaffold was amplified from px330 (Addgene 42230) and cloned into pLKO.TRC005 lentiviral vector (Broad Institute, Cambridge, Mass.) using AgeI/EcoRI restriction sites. BfuAI sites were added at the 5′ end of the sgRNA scaffold for cloning the TKO library or individual gRNA target sequences. Lenti Cas9-2A-BsdR vector used to generate Cas9 stable expression cell lines was constructed as described previously (Hart et al., 2015). Briefly, lentiCRISPR pXPR_001 (Addgene 49535) was modified through removal of the sgRNA scaffold region through NdeI/EcoRI digest and blunt ends generation using Large Klenow Fragment (NEB). 2A-puro was replaced with 2A-BsdR by PCR using the NheI/MluI sites. Each of the 10 human Frizzled cysteine rich domains (CRDs) were cloned into the lentiviral expression plasmid pLenti-puro in the following cassette: FZD_CRD-MYC-GPI.
Flow cytometry: Primary staining of cells was performed by treatment with 200 nM Frizzled profiler Fab. Alexa Fluor 488 AffiniPure F(ab′)2 was used as the secondary antibody (Jackson ImmunoResearch #109-546-097). c-Myc (9E10) IgG1 (primary antibody, Santa Cruz, lot #D0306) and Alexa Fluor 488 IgG (secondary antibody, Life technologies, lot #1458649) were used as controls. Dead cells were excluded by staining with Fixable Viability Dye eFluor 660 (eBioscience, catalogue number 65-0864). All reagents were used as per manufacturer's instructions. Flow cytometry was performed on a BD FACSCanto II flow cytometer (BD Biosciences), and data were analyzed with FlowJo software (FlowJo, LLC).
To confirm that the FZD5-WNT7B circuit is not driven simply by expression and rule out the possibility of a disconnect between RNA and protein levels for the Wnt receptors in HPAF-II cells, a panel of recombinant Fabs were generated, alternatively referred to herein as ‘Frizzled profiler’, that can detect and discriminate all but one of the ten Frizzled receptors. […] To characterize the binding specificity of these Fabs on cells, a panel of 10 CHO cell lines was generated, each expressing the CRD domain of a different myc-tagged Frizzled family member anchored at the plasma membrane through a GPI anchor (CHO-myc-FZDGPI). Despite the high sequence identity between Frizzled family members (FIG. 7A, FIG. 7B), selective Fabs were identified for FZD4, FZD5, FZD6 and FZD10 as assessed by immunofluorescence and flow cytometry (FIG. 7D and FIG. 8). […] The FZD8 CRD is most homologous to that of FZD5 (FIG. 7B). These Fabs can be used to discriminate expression of FZD1, FZD2, FZD4, FZD5, FZD6, FZD7, FZD8, FZD9 and FZD10 (FIG. 7D and FIG. 8). The ‘Frizzled profiler’ therefore consists of 10 different Fabs that can be used to discriminate expression of 9 different Frizzled family members. The Frizzled profiler was then used to confirm that HPAF-II cells express FZD1, FZD5, FZD6 and possibly FZD8 (FIG. 7E).
(§1) The binding of anti-FZD5 Fabs to cell surface-expressed Frizzled protein was further determined for each member of the Frizzled family via flow cytometry and immunofluorescence analysis of a panel of 10 CHO cell lines, each ectopically over-expressing the extracellular cysteine-rich domain (CRD) of a different Frizzled protein family member.

| Median fluorescence, Frizzled CRD overexpressed on CHO cells: FZD2 | Molecule |
| --- | --- |
| 10.84 | B1 |
| 9.39 | B2 |
| 13.95 | B3 |

Molecular target: T1, FZD10 CRD
Experiment: Immunofluorescence of anti-FZD5 Fab binding to CHO cells overexpressing Frizzled CRD
Parameters: key: −: no binding; +: very weak binder; ++: weak binder; +++: good binder; ++++: very good binder
Details: not given
Method in brief: (§2)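 Immunofluorescence readout of anti-FZD5 Fab staining on CHO cells ectopically overexpressing a single Frizzled cysteine-rich domain. Each CRD was fused to a myc tag and GPI anchor for plasma-membrane display; flow cytometry was run in parallel.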

| Immunofluorescence binding, Frizzled CRD overexpressed on CHO cells: FZD10 | Molecule |
| --- | --- |
| − | B1 |
| − | B2 |
| − | B3 |

Molecular target: T3, FZD2 CRD
Experiment: as above
Parameters: key: −: no binding; +: very weak binder; ++: weak binder; +++: good binder; ++++: very good binder
Details: not given
Method in brief: as §2

| Immunofluorescence binding, Frizzled CRD overexpressed on CHO cells: FZD2 | Molecule |
| --- | --- |
| − | B1 |
| − | B2 |
| − | B3 |

Molecular target: T2, FZD4 CRD
Experiment: as above
Parameters: key: −: no binding; +: very weak binder; ++: weak binder; +++: good binder; ++++: very good binder
Details: not given
Method in brief: as §2

| Immunofluorescence binding, Frizzled CRD overexpressed on CHO cells: FZD4 | Molecule |
| --- | --- |
| − | B1 |
| − | B2 |
| − | B3 |

System: ASPC-1 cells
Experiment: Effect of anti-FZD5 Fabs on proliferation of pancreatic cancer cell lines (percent growth inhibition)
Type: cell-based, human
Details: Fab 10 μg/ml
Protocol: (§3) The effect of presently disclosed anti-FZD5 Fabs on proliferation of RNF43 loss-of-function mutant pancreatic cancer cell lines HPAFII, PATU8988S and ASPC-1; and on pancreatic cancer cell line RWP1, was tested at […] and 10 μg/ml.

| Molecule | percent growth inhibition, ASPC-1 10 μg/ml [%] |
| --- | --- |
| B1 | 14.86 |
| B2 | 28.62 |
| B3 | 11.26 |

System: HPAFII cells
Experiment: as above
Type: cell-based, human
Details: Fab 2 μg/ml
Protocol: as §3

| Molecule | percent growth inhibition, HPAFII 2 μg/ml [%] |
| --- | --- |
| B1 | −10.34 |
| B2 | −0.17 |
| B3 | 6.38 |

Same assay, conditions: Fab 10 μg/ml

| Molecule | percent growth inhibition, HPAFII 10 μg/ml [%] |
| --- | --- |
| B1 | −10.98 |
| B2 | 3.21 |
| B3 | 12.31 |

System: PATU8988S cells
Experiment: as above
Type: cell-based, human
Details: Fab 10 μg/ml
Protocol: as §3

| Molecule | percent growth inhibition, PATU8988s 10 μg/ml [%] |
| --- | --- |
| B1 | −16.37 |
| B2 | −8.85 |
| B3 | −6.65 |

System: RWP1 cells
Experiment: as above
Type: cell-based, human
Details: Fab 10 μg/ml
Protocol: as §3

| Molecule | percent growth inhibition, RWP1 10 μg/ml [%] |
| --- | --- |
| B1 | 17.38 |
| B2 | 25.69 |
| B3 | 21.10 |

System: CHO cells not expressing Frizzled CRD
Experiment: Flow cytometry of anti-FZD5 Fab binding to CHO cells not expressing Frizzled CRD (background)
Details: not given
Text: as §1

| Molecule | Median fluorescence, Frizzled CRD overexpressed on CHO cells: None |
| --- | --- |
| B1 | 4.07 |
| B2 | 3.59 |
| B3 | 3.75 |

System: PATU8988S cells
Experiment: Effect of anti-FZD5 Fabs on proliferation of pancreatic cancer cell lines (percent growth inhibition)
Type: cell-based, human
Details: Fab 2 μg/ml

| Molecule | percent growth inhibition, PATU8988s 2 μg/ml [%] |
| --- | --- |
| B1 | −22.81 |
| B2 | −14.70 |
| B3 | −9.37 |

System: ASPC-1 cells
Experiment: as above
Type: cell-based, human
Details: Fab 2 μg/ml

| Molecule | percent growth inhibition, ASPC-1 2 μg/ml [%] |
| --- | --- |
| B1 | 4.49 |
| B2 | 28.71 |
| B3 | −8.27 |

System: RWP1 cells
Experiment: as above
Type: cell-based, human
Details: Fab 2 μg/ml

| Molecule | percent growth inhibition, RWP1 2 μg/ml [%] |
| --- | --- |
| B1 | 8.52 |
| B2 | 32.22 |
| B3 | −19.95 |
